Several values for one entry are separate records, joined by “and”; a condition that tells them apart may be missing. Identical values can stand only once. ± gives the standard deviation of the averaged measurements.
Assays:
Saccharomyces cerevisiae [1] = assay: protein stability index of tFT-peptide fusion in deletion strain of DOA10 (PSI (0-1 scale)); higher = more stable (slower turnover)
Protocol: (§1)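 MPS profiling in S. cerevisiae of two library types built from selected 12-aa C-degron peptides (IN1, IN2, LN1, LN3, VN2, R1-R5, W1-W3, Atg1 and Rpa12 C-termini): saturation mutagenesis libraries and C-terminal +1 capping libraries (13 aa). Each peptide is fused to the C-terminus of a sfGFP-mCherry timer, after a GGGS linker. Cells are FACS-sorted into 8 mCherry/sfGFP bins and sequenced. PSI runs from 0 (unstable) to 1 (stable), measured once in wild type and in the das1Δ or doa10Δ background.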

Saccharomyces cerevisiae [2] = assay: protein stability index of tFT-peptide fusion in wild type (PSI (0-1 scale)); higher = more stable (slower turnover); conditions: genetic background: wild type
Protocol: as §1

Saccharomyces cerevisiae [3] = assay: protein stability index of tFT-peptide fusion in deletion strain of DAS1 (PSI (0-1 scale)); higher = more stable (slower turnover)
Protocol: as §1

Saccharomyces cerevisiae [4] = assay: protein stability index of tFT-peptide fusion (C-terminal peptide) (PSI (0-1 scale)); higher = more stable (slower turnover); conditions: genetic background: wild type; temperature: 30 C
Saccharomyces cerevisiae [5] = assay: as above
Protocol: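 MPS profiling in S. cerevisiae of the tFT-X12 degron library: putative degron peptides plus stable controls, 12 aa, fused to the C-terminus of a sfGFP-mCherry timer. Cells are FACS-sorted into 8 mCherry/sfGFP bins and deep-sequenced. PSI runs from 0 (unstable) to 1 (stable). Backgrounds are wild type, das1Δ and doa10Δ at 30 °C, and wild type, das1Δ, cdc34-1 and cdc53-1 at 37 °C; 2-3 technical replicates each.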

[6] = genetic background: cdc34-1, temperature: 37 C
[7] = genetic background: cdc53-1, temperature: 37 C
[8] = genetic background: das1 deletion, temperature: 30 C
[9] = genetic background: das1 deletion, temperature: 37 C
[10] = genetic background: doa10 deletion, temperature: 30 C
[11] = genetic background: wild type, temperature: 30 C
[12] = genetic background: wild type, temperature: 37 C
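Wherever protein stability index of tFT-peptide fusion (C-terminal peptide) is given: PSI is a weighted mean of sequencing reads over stability bins, variants kept only with over 10 reads, mCherry proximal and sfGFP distal, peptide attached via GGGS linker.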
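Wherever protein stability index of tFT-peptide fusion in deletion strain of DAS1 is given: PSI is a weighted mean of each variant's read distribution over the sorted stability bins, computed only for variants having over 10 reads in total.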
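Wherever protein stability index of tFT-peptide fusion in deletion strain of DOA10 is given: PSI per variant is the weighted mean of its sequencing read distribution over the sorted stability bins, counting only variants with over 10 reads summed across bins.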
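Wherever protein stability index of tFT-peptide fusion in wild type is given: PSI derived as read-weighted mean over the 8 sorting bins, only variants exceeding 10 total reads kept, mCherry placed adjacent to the peptide and sfGFP distal.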

Sequence | protein stability index (Saccharomyces cerevisiae [1]) | protein stability index (Saccharomyces cerevisiae [2]) | protein stability index (Saccharomyces cerevisiae [3]) | also measured
AITLPMYPLLLR | 0.651 | 0.161 |  | 
CLVSLPICLFFR | 0.593 | 0.0838 |  | 
GLYMCSVGCWFL | 0.598 | 0.506 |  | 
RVTRLDQIYFRI | 0.696 | 0.403 |  | 
RSLRVLEPLYFR | 0.69 | 0.412 |  | 
RSLRVLLPLIFR | 0.671 | 0.375 |  | 
GLYMCFVGCWFR | 0.402 | 0.233 |  | 
AITLPMDPLLLR | 0.681 | 0.627 |  | 
KSLRVLLPLYFR | 0.654 | 0.288 |  | 
AITLPMCPLLLL | 0.625 | 0.558 |  | 
RSLRVLLPTYFR | 0.664 | 0.569 |  | 
AITLPMCPLLHR | 0.716 | 0.628 |  | 
AIMLPMCPLLLR | 0.612 | 0.258 |  | 
CLVSLFILLFFR | 0.433 | 0.228 |  | 
GLYMCSVGCHFR | 0.663 | 0.621 |  | 
RSLRVLLPLYFRP | 0.638 | 0.291 |  | 
GLYMCSVGCWFRK | 0.648 | 0.435 |  | 
AITLPMCHLLLR | 0.663 | 0.158 |  | 
CLVSLPIILFFR | 0.575 | 0.0727 |  | 
DITLPMCPLLLR | 0.655 | 0.39 |  | 
FSMRWTFRYWVN |  | 0.0664 and 0.0463 | 0.528 and 0.476 | protein stability index (Saccharomyces cerevisiae [4]): 0.112 ± 0.021; protein stability index (Saccharomyces cerevisiae [5]; [6]): 0.301 ± 0.016; protein stability index (Saccharomyces cerevisiae [5]; [7]): 0.545 ± 0.03; protein stability index (Saccharomyces cerevisiae [5]; [8]): 0.531 ± 0.025; protein stability index (Saccharomyces cerevisiae [5]; [9]): 0.573 ± 0.011; protein stability index (Saccharomyces cerevisiae [5]; [10]): 0.0438 ± 0.012; protein stability index (Saccharomyces cerevisiae [5]; [11]): 0.0542 ± 0.0043; protein stability index (Saccharomyces cerevisiae [5]; [12]): 0.0931 ± 0.022
FLYMCSVGCWFR | 0.563 | 0.351 |  | 
RVTRLDAIYFRIK | 0.694 | 0.615 |  | 
VLYMCSVGCWFR | 0.521 | 0.311 |  | 
AITYPMCPLLLR | 0.655 | 0.287 |  | 
GLYMCSEGCWFR | 0.706 | 0.619 |  | 

Sequence | protein stability index (Saccharomyces cerevisiae [1]) | protein stability index (Saccharomyces cerevisiae [2]) | protein stability index (Saccharomyces cerevisiae [3]) | also measured
RSLRVLLPLYLR | 0.671 | 0.29 |  | 
AITLPMCPLRLR | 0.666 | 0.453 |  | 
RVTRLDAIYFSI | 0.713 | 0.629 |  | 
CLVSLPILLFDR | 0.65 | 0.554 |  | 
RVTRLDAIYFRF | 0.718 | 0.415 |  | 
RVERLDAIYFRI | 0.682 | 0.491 |  | 
RVTRLDAIYFRIS | 0.271 | 0.206 |  | 
GLCMCSVGCWFR | 0.608 | 0.256 |  | 
RVTRMDAIYFRI | 0.683 | 0.365 |  | 
CLVSLPILLYFR | 0.597 | 0.0564 |  | 
GLYMCSVRCWFR | 0.442 | 0.382 |  | 
LVVYLSCVACIN |  | 0.0193 and 0.0155 | 0.032 and 0.0307 | protein stability index (Saccharomyces cerevisiae [4]): 0.0328 ± 0.013; protein stability index (Saccharomyces cerevisiae [5]; [6]): 0.0319 ± 0.015; protein stability index (Saccharomyces cerevisiae [5]; [7]): 0.028 ± 0.0046; protein stability index (Saccharomyces cerevisiae [5]; [8]): 0.0277 ± 0.0056; protein stability index (Saccharomyces cerevisiae [5]; [9]): 0.0456 ± 0.0096; protein stability index (Saccharomyces cerevisiae [5]; [10]): 0.0223 ± 0.0051; protein stability index (Saccharomyces cerevisiae [5]; [11]): 0.0185 ± 0.0067; protein stability index (Saccharomyces cerevisiae [5]; [12]): 0.0515 ± 0.034
ARWRVGLWRGAS |  | 0.37 | 0.679 | protein stability index (Saccharomyces cerevisiae [4]): 0.448 ± 0.028; protein stability index (Saccharomyces cerevisiae [5]; [6]): 0.66 ± 0.033; protein stability index (Saccharomyces cerevisiae [5]; [7]): 0.7486 ± 0.0018; protein stability index (Saccharomyces cerevisiae [5]; [8]): 0.648 ± 0.021; protein stability index (Saccharomyces cerevisiae [5]; [9]): 0.764 ± 0.011; protein stability index (Saccharomyces cerevisiae [5]; [10]): 0.259 ± 0.0043; protein stability index (Saccharomyces cerevisiae [5]; [11]): 0.3 ± 0.035; protein stability index (Saccharomyces cerevisiae [5]; [12]): 0.612 ± 0.012
KKHKKGHKQKIN |  | 0.111 | 0.592 | 
FEMRWTFRYWVN |  | 0.0443 | 0.437 | 
PCKRNHLIKLLN |  | 0.112 | 0.614 | 
LVVYLSCVACIH |  | 0.0123 | 0.0535 | 
LKILQQKMNHQN |  | 0.163 | 0.676 | 
FSMDWTFRYWVN |  | 0.0547 | 0.543 | 
CTSCGYKFHTNN |  | 0.429 | 0.713 | 
PDKRNHLIKLYN |  | 0.343 | 0.599 | 
FSMRWPFRYWVN |  | 0.0756 | 0.569 | 
MDKRNHLIKLLN |  | 0.111 | 0.702 | 
FSMRWTFRYWVND |  | 0.539 | 0.557 | 
LKILRQFMNHQN |  | 0.192 | 0.664 | 
CTSCYYKFRTNN |  | 0.199 | 0.639 | 

Sequence | protein stability index (Saccharomyces cerevisiae [1]) | protein stability index (Saccharomyces cerevisiae [2]) | protein stability index (Saccharomyces cerevisiae [3]) | also measured
KKHKKGQKQKFN |  | 0.307 | 0.635 | 
LKILTQKMNHQN |  | 0.276 | 0.688 | 
LVVYLSAVACIN |  | 0.0153 | 0.0365 | 
FSMKWTFRYWVN |  | 0.0449 | 0.565 | 
WDKRNHLIKLLN |  | 0.113 | 0.602 | 
LVVYLQCVACIN |  | 0.0274 | 0.0353 | 
RLIQPLPVQILN |  | 0.309 | 0.774 | 
RLIQPYPVQFLN |  | 0.0613 | 0.578 | 
PSLAASFSRVVG |  | 0.665 | 0.631 | 
PSLAASFWRVAG |  | 0.256 | 0.671 | 
KKHWKGQKQKIN |  | 0.112 | 0.594 | 
VRGAVGGWKLVG |  | 0.203 | 0.679 | 
FDMRWTFRYWVN |  | 0.089 | 0.557 | 
RLIQMLPVQFLN |  | 0.0223 | 0.626 | 
RLIQPCPVQFLN |  | 0.0722 | 0.612 | 
AIWRVGLWRGAS |  | 0.405 | 0.69 | 
RLIQPLPKQFLN |  | 0.103 | 0.559 | 
FSMRWTYRYWVN |  | 0.0544 | 0.504 | 
QKILRQKMNHQN |  | 0.152 | 0.678 | 
LVVYLSCVACKN |  | 0.034 | 0.0769 | 
ETSCGYKFRTNN |  | 0.266 | 0.672 | 
LKILRQKMNHGN |  | 0.47 | 0.672 | 
RLIQPLPIQFLN |  | 0.0384 | 0.593 | 
WRWRVGLWRGAS |  | 0.186 | 0.764 | 
VRGAVVGWRLVG |  | 0.141 | 0.66 | 
ERWRVGLWRGAS |  | 0.378 | 0.741 | 

Sequence | protein stability index (Saccharomyces cerevisiae [1]) | protein stability index (Saccharomyces cerevisiae [2]) | protein stability index (Saccharomyces cerevisiae [3]) | also measured
KKHGKGQKQKIN |  | 0.0862 | 0.707 | 
CTSCGYKFRDNN |  | 0.673 | 0.663 | 
LKIKRQKMNHQN |  | 0.208 | 0.683 | 
RLIQPLPVQFLA |  | 0.139 | 0.589 | 
PDKRNHLIKFLN |  | 0.112 | 0.583 | 
KFHKKGQKQKIN |  | 0.139 | 0.576 | 
PWKRNHLIKLLN |  | 0.0786 | 0.606 | 
PSLSASFWRVVG |  | 0.176 | 0.692 | 
PSLAAVFWRVVG |  | 0.146 | 0.665 | 
FSMRWTFRYWVF |  | 0.0705 | 0.439 | 
KKHKKGQKQKTN |  | 0.472 | 0.619 | 
PDKQNHLIKLLN |  | 0.189 | 0.593 | 
LVMYLSCVACIN |  | 0.0125 | 0.135 | 
FSMCWTFRYWVN |  | 0.0491 | 0.412 | 
RLIQPLYVQFLN |  | 0.0572 | 0.629 | 
LVVYLTCVACIN |  | 0.0129 | 0.0371 | 
LKILRQKMNHQNQ |  | 0.623 | 0.685 | 
LKILRQKMNHHN |  | 0.247 | 0.688 | 
VTSCGYKFRTNN |  | 0.214 | 0.674 | 
FSMRKTFRYWVN |  | 0.0767 | 0.577 | 
LKILMQKMNHQN |  | 0.244 | 0.687 | 
VRGAVGGWRLGG |  | 0.69 | 0.628 | 
PSLAASFWRVVC |  | 0.119 | 0.679 | 
PDKRCHLIKLLN |  | 0.0642 | 0.596 | 
KSHKKGQKQKIN |  | 0.119 | 0.6 | 
PSLAASFWRVVV |  | 0.144 | 0.687 | 

Source: the supplement of paper PMC10724198
